Laboratory results from patent US20020102250A1, “Recombinant S. aureus peptide deformylase” (priority 2000, published 2002).

Key:
[1] = Stability of Fe forms of pdf at serial dilutions with or without catalase; pdf assay coupled to Vibrio aminopeptidase; format: biochemical
Procedure: A description of the optimized assay conditions is as follows. The final assay solution contained 50 mM Hepes, 10 mM NaCl, pH 7.0, 0.1% K-casein (Sigma Chemical Co.; St. Louis, Mo.), 100 micromolar formyl-Met-Leu-p-nitroanilide (prepared by standard methods and commercially available from Bachem Bioscience, Inc.; Philadelphia, Pa.; Catalog No. L2030), 5 nanograms of pdf protein (iron form) or 100 nanograms of pdf protein (zinc form), and V. proteolytica aminopeptidase.
(A) 25 microliters of inhibitor in 15% dimethyl sulfoxide (DMSO) (maximum) was pipetted into 96 well microtiter plates (Immulon II from Dynex Technologies; Chantilly, Va.).
(B) 100 microliters of bulk assay solution was pipetted next. This solution is described as follows, and required that the reagents be mixed in the order shown below (enough for 100 assays):
(C) The plate was preincubated at room temperature for 10 minutes.
(D) Finally, 25 microliters of 0.6 mM f-Met-Leu-p-nitroanilide (prepared by adding 120 microliters of 20 mM stock in 100% MeOH to 3,880 microliters of assay buffer) was added.
(E) Each plate was examined in a SpectraMax 250 reader (Molecular Devices Corp.; Sunnyvale, Calif.) using an absorbance of 405 nm. Time points were taken every 20 seconds over a 30 minute time course at 25° C. Since oxidation might be an issue, the plate was mixed to begin the reaction, but not prior to subsequent time points. Addition of anti-oxidant reagents is not required, and preferably reducing agents are not added. Each line was checked for linearity over time and the resulting R^2 value was expected to be greater than about 0.98 for assay validity.
Expression of the iron form of S. aureus or E. coli pdf (known to be unstable) in E. coli was monitored after the addition of 1.6 mM FeCl3 in the media (Luria broth). Incubation was allowed to proceed for 1 hour prior to the addition of IPTG (0.4 mM). Induction continued for 3 hours at 37° C. Cells were isolated and extracted in the presence of catalase (10 micrograms/ml). The purpose of the catalase was to act as an oxygen scavenger to prevent the inactivation of the Fe form of the E. coil pdf. The extracts were subjected to Ni-NTA chromatography for the purification of the C-terminally His tagged versions of both the E. coli and S. aureus pdf proteins. The purified proteins (concentrated to at least 1 mg/ml by ultrafiltration using a membrane available from Amicon; Bedford, Mass.) were stored in the presence of 10 micrograms/ml (minimum concentration) catalase. To examine the stability of the Fe forms of the pdf proteins, dilutions of the proteins were made in the presence or absence of catalase, followed by assays of the enzymes (serially diluted) in the presence or absence of catalase (at 100 micrograms/ml). Assays were run using formyl-Met-Leu-p-nitroanilide as substrate, coupled to the Vibrio aminopeptidase.
The results, which depict linear reactions catalyzed by pdf, are shown in FIG. 2 for S. aureus pdf and FIG. 3 for E. coli pdf. […] The rates shown are in mOD/minute, and each line represents a different concentration of the pdf in nanogram amounts as listed in the legend. […] This is consistent with a significant loss of enzyme activity in the absence of catalase only for the E. coli enzyme. See Rajagopalan et al., J. Amer. Chem. Soc., 119:12418-19 (1997).

[2] = Fe complex, as reported in prior work; cited from earlier work

Molecule | Vmax ([1]; 125 ng pdf, with added catalase) [mOD/minute] | Vmax ([1]; 125 ng pdf, without added catalase) [mOD/minute] | Vmax ([1]; 250 ng pdf, with added catalase) [mOD/minute] | Vmax ([1]; 250 ng pdf, without added catalase) [mOD/minute] | Vmax ([1]; 500 ng pdf, with added catalase) [mOD/minute] | Vmax ([1]; 500 ng pdf, without added catalase) [mOD/minute] | Vmax ([1]; 1000 ng pdf, with added catalase) [mOD/minute] | Vmax ([1]; 1000 ng pdf, without added catalase) [mOD/minute] | pdf activity as a function of dilution, with versus without catalase in the assay solution ([1]; catalase at 100 micrograms/ml or absent) | half-life [2]
E. coli pdf: Iron form of E. coli peptide deformylase, C-terminally His tagged, known to be unstable, used for comparison (protein, UniProt P0A6K3 2-169, looked up, C-terminal His tag; iron form) Peptide deformylase: SVLQVLHIPDERLRKVAKPVEEVNAEIQRIVDDMFETMYAEEGIGLAATQVDIHQRIIVIDVSENRDERLVLINPELLEKSGETGIEEGCLSIPEQRALVPRAEKVKIRALDRDGKPFELEADGLLAICIQHEMDHLVGKLFMDYLSPLKQQRIRQKVEKLDRLKARA | 8.4 | 2.4 | 19.2 | 3.7 | 45.1 | 6.5 | 133 | 18.9 | rapidly loses activity | –
Fe complex of pdf: Fe complex of peptide deformylase of the prior art (background, E. coli enzyme context) (protein, UniProt P0A6K3 2-169, looked up, iron form) Peptide deformylase: SVLQVLHIPDERLRKVAKPVEEVNAEIQRIVDDMFETMYAEEGIGLAATQVDIHQRIIVIDVSENRDERLVLINPELLEKSGETGIEEGCLSIPEQRALVPRAEKVKIRALDRDGKPFELEADGLLAICIQHEMDHLVGKLFMDYLSPLKQQRIRQKVEKLDRLKARA | – | – | – | – | – | – | – | – | – | around 30 seconds
